This assay concerns the target A/Anhui/1/2013 H7N9 NA, thrombin-digested (for crystals) (influenza A virus A/Anhui/1/2013 (H7N9)). The assay can be described thus: crystal structure.

The record followed here is article PMC7542365 (mBio, 2020).

Broadly, the stoichiometry N is the number of molecules, sites or subunits per partner or assembly.

As for “A/Anhui/1/2013 H7N9 NA, thrombin-digested (for crystals) (domain or fragment)”, the stoichiometry N was 4.
